According to paper PMC12360793:

Assays:
[1] = molecular target: biotinylated monomeric MOW15–22 RBD (MOW15–22 (bat MERSr-CoV sampled in Pipistrellus nathusii)); experiment: BLI
[2] = molecular target: dimeric P.dav ACE2 ectodomain (cryo-EM sample with MOW15–22 RBD) (P.dav (a Pteronotus bat)); experiment: cryo-EM structure
[3] = molecular target: biotinylated monomeric PnNL2018B RBD (PnNL2018B (bat MERSr-CoV sampled in Pipistrellus nathusii)); experiment: BLI

Substance | Kd [1] [nM] | stoichiometry N (RBD per ACE2 dimer) [2] | Kd [3] [nM]
monomeric P.nat ACE2 ectodomain (residues 17–614, avi-His8) (domain or fragment) | 1450 | – | –
MOW15–22 RBD (cryo-EM sample with P.dav ACE2) (from UniProt Q56H28 360-611) (domain or fragment) | – | < 1 | –
monomeric P.dav ACE2 ectodomain (residues 17–613, avi-His8) (from UniProt Q56H28 17-613) (domain or fragment) | 1070 | – | –
dimeric P.nat ACE2 ectodomain (residues 17–729, avi-His8) (domain or fragment) | 12.8 | – | 897
dimeric P.dav ACE2 ectodomain (residues 17–728, avi-His8) (from UniProt Q56H28 17-728) (domain or fragment) | 6.38 | – | –
